In publication PMC8514465, “Functional and structural analysis of catabolite control protein C that responds to citrate” (Scientific Reports, 2021):
Positions count from the first letter of the chain named.

Tests used:
BaCcpC-FL = target: T1, BaCcpC-FL (Bacillus velezensis, UniProt A7Z428); assay: EMSA with biotin-labelled citB promoter DNA; assay type: binding; settings: 40 μM protein, 800 nM citB promoter DNA, 0-70 μM citrate, 30 min, room temperature; inducer
T1 construct: gene RBAM_013910; full length, residues 1-293; N-terminal His tag removed by TEV; E. coli BL21(DE3); dimer (~60 kDa) by SEC-MALS
T1 sequence (A7Z428 1-293): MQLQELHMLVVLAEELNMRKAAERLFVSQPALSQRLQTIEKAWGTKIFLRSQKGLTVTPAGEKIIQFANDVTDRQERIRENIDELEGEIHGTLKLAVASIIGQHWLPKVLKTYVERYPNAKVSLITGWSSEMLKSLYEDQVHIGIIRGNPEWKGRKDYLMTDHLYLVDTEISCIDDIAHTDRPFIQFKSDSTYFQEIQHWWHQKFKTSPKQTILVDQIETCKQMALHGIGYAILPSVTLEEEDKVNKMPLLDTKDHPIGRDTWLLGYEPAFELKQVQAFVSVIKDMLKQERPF

[1] = target: the molecule itself; assay: SEC-MALS; BaCcpC-FL not incubated with citrate; Superdex 200 Increase 10/300 GL, 295 K, 20 mM Tris pH 8.0, 150 mM NaCl, 2 mM 2-mercaptoethanol
[2] = target: the molecule itself; assay: crystal structure; BaCcpC-IBD with citrate, 2.3 Å, space group C2, SAD phasing; crystals from PEG 6000, MPD, 0.1 M HEPES pH 7.5, 287 K

Molecule: O=C(O)CC(O)(CC(=O)O)C(=O)O [citrate]
- EMSA with biotin-labelled citB promoter DNA (BaCcpC-FL): the presence of citrate slightly suppressed the binding of CcpC to citB-P

B1: full-length catabolite control protein C from Bacillus amyloliquefaciens (natural protein, UniProt A0A9P1JGF9 1-293, looked up)
chain: T1 sequence (A7Z428 1-293) with T253A, I283V
notes: Catabolite control protein C (CcpC), LysR-type transcriptional regulator, Bacillus amyloliquefaciens, residues 1-293, amplified from genomic DNA; PDB 7DMW holds only residues 88-293; also called BaCcpC-FL; BaCcpC; source: E. coli BL21 (DE3), purified (Ni-NTA, TEV cleavage, HiTrap-Q, Superdex 200); not shown: His6, N-terminal, cleaved
- stoichiometry N [1]: 2

B2: C-terminal inducer-binding domain of Bacillus amyloliquefaciens CcpC (domain or fragment, UniProt A0A9P1JGF9 88-293, looked up)
chain: EIHGTLKLAVASIIGQHWLPKVLKTYVERYPNAKVSLITGWSSEMLKSLYEDQVHIGIIRGNPEWKGRKDYLMTDHLYLVDTEISCIDDIAHTDRPFIQFKSDSTYFQEIQHWWHQKFKTSPKQTILVDQIETCKQMALHGIGYAILPSVTLEEEDKVNKMPLLDAKDHPIGRDTWLLGYEPAFELKQVQAFVSVVKDMLKQERPF
modifications: selenomethionine-substituted (Se-Met protein used for SAD phasing)
notes: Crystallised in complex with citrate; five molecules in the asymmetric unit; Cloned into pPROEX-HTA; also called BaCcpC-IBD; CcpC-IBD; source: E. coli BL21 (DE3), purified (Ni-NTA, TEV cleavage, HiTrap-Q, Superdex 200) with 10 mM sodium citrate throughout; not shown: His6, N-terminal, cleaved
- binding result [2]: binds
